From the supplement of paper PMC6757056 come the findings set out here.

± gives the standard deviation of the averaged measurements.

To fix the notation:
B1: library; a variant is named by its letters at N, in order (parent)
chain: GCUGUCACCGGUGCUUGGUACGUUAUAUUCAGCCGGUCUGAUGAGUCUNNNNNNAGACGAAACAGC

The variants in data set [1] derive from B1. Put plainly: normalized RNA/DNA level without ligand (relative to sTRSVctl = 100) (log10 (% of sTRSVctl)); HEK293T overexpressing SLC46A1; higher = less ribozyme self-cleavage, higher mRNA level. The following applies: without (6R,S)-folinic acid; ligand present: no. In outline:
(§1)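 Only sequences with at least 100 DNA reads were analyzed, from HEK293T cells transfected with 4 µg per 6-well well of ribozyme switch library plasmids 72 h before RNA extraction with EDTA. Any ligand was added 1 h before transfection. RNA level was defined as RNA over DNA reads, normalized to a spiked-in non-cleaving sequence or to the top sequences, then scaled and log-transformed. The top set was 25 sequences, and the scaling was ×100 followed by log10.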

Variants of B1 are the subject of data set [2]. Put plainly: normalized RNA/DNA level with ligand (relative to sTRSVctl = 100) (log10 (% of sTRSVctl)); HEK293T overexpressing SLC46A1; ligand concentration (+) RNA-Seq: 6 mM; higher = less ribozyme self-cleavage, higher mRNA level. The note with it: with (6R,S)-folinic acid; ligand present: yes. In outline: as §1

With GCUGUCACCGGUGCUUGGUACGUUAUAUUCAGCCGGUCUGAUGAGUCUCCGACAAGACGAAACAGC [CCGACA], in data set [1], the “normalized RNA/DNA level without ligand (log10)” value was determined as 2.02 ± 0.029. In data set [2], the “normalized RNA/DNA level with ligand (log10)” value came out at 2.04 ± 0.035.
Take GCUGUCACCGGUGCUUGGUACGUUAUAUUCAGCCGGUCUGAUGAGUCUCCGACUAGACGAAACAGC [CCGACU]: the “normalized RNA/DNA level without ligand (log10)” value in data set [1] turned out to be 2.062 ± 0.0038. The “normalized RNA/DNA level with ligand (log10)” value in data set [2] turned out to be 2.01 ± 0.027.
For the variant GCUGUCACCGGUGCUUGGUACGUUAUAUUCAGCCGGUCUGAUGAGUCUCCGACCAGACGAAACAGC [CCGACC], the “normalized RNA/DNA level without ligand (log10)” value in data set [1] was found to be 2.063 ± 0.0099. For the same variant, the “normalized RNA/DNA level with ligand (log10)” value in data set [2] stood at 2.04 ± 0.062.
In the case of GCUGUCACCGGUGCUUGGUACGUUAUAUUCAGCCGGUCUGAUGAGUCUCCGACGAGACGAAACAGC [CCGACG], in data set [1], the “normalized RNA/DNA level without ligand (log10)” value is 2.033 ± 0.013. In data set [2], the “normalized RNA/DNA level with ligand (log10)” value stood at 2.0354 ± 0.0001.
For GCUGUCACCGGUGCUUGGUACGUUAUAUUCAGCCGGUCUGAUGAGUCUACGACUAGACGAAACAGC [ACGACU] the same measures were 1.997 ± 0.0037 and 2.006 ± 0.017.
Turning to GCUGUCACCGGUGCUUGGUACGUUAUAUUCAGCCGGUCUGAUGAGUCUGCGACCAGACGAAACAGC [GCGACC], in data set [1], the “normalized RNA/DNA level without ligand (log10)” value worked out at 2.029 ± 0.0059. Also, the “normalized RNA/DNA level with ligand (log10)” value in data set [2] is 2.07 ± 0.037.
The corresponding values for GCUGUCACCGGUGCUUGGUACGUUAUAUUCAGCCGGUCUGAUGAGUCUGCGACUAGACGAAACAGC [GCGACU] are 2.051 ± 0.0076 and 2.06 ± 0.04.
Consider GCUGUCACCGGUGCUUGGUACGUUAUAUUCAGCCGGUCUGAUGAGUCUGCGACGAGACGAAACAGC [GCGACG], for which, in data set [1], the “normalized RNA/DNA level without ligand (log10)” value was 1.989 ± 0.017. The “normalized RNA/DNA level with ligand (log10)” value in data set [2] was 2.02 ± 0.045.
In the case of GCUGUCACCGGUGCUUGGUACGUUAUAUUCAGCCGGUCUGAUGAGUCUGCGACAAGACGAAACAGC [GCGACA], the “normalized RNA/DNA level without ligand (log10)” value in data set [1] amounted to 2.024 ± 0.015. For the same variant, in data set [2], the “normalized RNA/DNA level with ligand (log10)” value is 2.05 ± 0.03.
On to GCUGUCACCGGUGCUUGGUACGUUAUAUUCAGCCGGUCUGAUGAGUCUACCUUUAGACGAAACAGC [ACCUUU], for which the “normalized RNA/DNA level without ligand (log10)” value in data set [1] was determined as 2.071 ± 0.0086. Besides, the “normalized RNA/DNA level with ligand (log10)” value in data set [2] was 2.02 ± 0.021.
In the case of GCUGUCACCGGUGCUUGGUACGUUAUAUUCAGCCGGUCUGAUGAGUCUUCGAGCAGACGAAACAGC [UCGAGC], in data set [1], the “normalized RNA/DNA level without ligand (log10)” value stood at 2.022 ± 0.017. In addition, in data set [2], the “normalized RNA/DNA level with ligand (log10)” value is 2.026 ± 0.011.
For GCUGUCACCGGUGCUUGGUACGUUAUAUUCAGCCGGUCUGAUGAGUCUUCGAGGAGACGAAACAGC [UCGAGG] the same measures were 1.938 ± 0.017 and 2 ± 0.025.
As to GCUGUCACCGGUGCUUGGUACGUUAUAUUCAGCCGGUCUGAUGAGUCUUCGAGAAGACGAAACAGC [UCGAGA], the “normalized RNA/DNA level without ligand (log10)” value in data set [1] was determined as 2.006 ± 0.0024. In data set [2], the “normalized RNA/DNA level with ligand (log10)” value was 2.07 ± 0.049.
The corresponding values for GCUGUCACCGGUGCUUGGUACGUUAUAUUCAGCCGGUCUGAUGAGUCUGCGAUCAGACGAAACAGC [GCGAUC] are 2.039 ± 0.014 and 2.003 ± 0.015.
As for GCUGUCACCGGUGCUUGGUACGUUAUAUUCAGCCGGUCUGAUGAGUCUGCGAUAAGACGAAACAGC [GCGAUA], the “normalized RNA/DNA level without ligand (log10)” value in data set [1] was determined as 1.999 ± 0.0087. For the same variant, the “normalized RNA/DNA level with ligand (log10)” value in data set [2] turned out to be 2 ± 0.011.
For GCUGUCACCGGUGCUUGGUACGUUAUAUUCAGCCGGUCUGAUGAGUCUGCGAGUAGACGAAACAGC [GCGAGU], the “normalized RNA/DNA level without ligand (log10)” value in data set [1] worked out at 1.99 ± 0.04. Also, in data set [2], the “normalized RNA/DNA level with ligand (log10)” value was 2.03 ± 0.051.
Take GCUGUCACCGGUGCUUGGUACGUUAUAUUCAGCCGGUCUGAUGAGUCUGCGAGGAGACGAAACAGC [GCGAGG]: the “normalized RNA/DNA level without ligand (log10)” value in data set [1] was 1.98 ± 0.023. The “normalized RNA/DNA level with ligand (log10)” value in data set [2] amounted to 2.05 ± 0.046.
Consider GCUGUCACCGGUGCUUGGUACGUUAUAUUCAGCCGGUCUGAUGAGUCUUCGAUCAGACGAAACAGC [UCGAUC], for which the “normalized RNA/DNA level without ligand (log10)” value in data set [1] is 2.06 ± 0.025. Moreover, the “normalized RNA/DNA level with ligand (log10)” value in data set [2] was found to be 2.03 ± 0.026.
Take GCUGUCACCGGUGCUUGGUACGUUAUAUUCAGCCGGUCUGAUGAGUCUUCGACCAGACGAAACAGC [UCGACC]: the “normalized RNA/DNA level without ligand (log10)” value in data set [1] came to 2.052 ± 0.0052. Further, in data set [2], the “normalized RNA/DNA level with ligand (log10)” value came to 2.04 ± 0.036.
As to GCUGUCACCGGUGCUUGGUACGUUAUAUUCAGCCGGUCUGAUGAGUCUUCGACAAGACGAAACAGC [UCGACA], in data set [1], the “normalized RNA/DNA level without ligand (log10)” value was 1.999 ± 0.0076. Besides, the “normalized RNA/DNA level with ligand (log10)” value in data set [2] turned out to be 2.022 ± 0.0062.
As for GCUGUCACCGGUGCUUGGUACGUUAUAUUCAGCCGGUCUGAUGAGUCUUCGACGAGACGAAACAGC [UCGACG], the “normalized RNA/DNA level without ligand (log10)” value in data set [1] worked out at 1.867 ± 0.017. Further, the “normalized RNA/DNA level with ligand (log10)” value in data set [2] was determined as 1.9974 ± 0.0011.
